From patent US20060183194A1 (Genentech, published 2006)

T1: ErbB-4 receptor-Ig fusion (human, UniProt Q15303 26-651)
T1 construct: extracellular domain;range 224-C-terminus; also called ErbB-4-Ig; not shown: human IgG heavy chain constant region from His224 (hinge) on
T1 sequence: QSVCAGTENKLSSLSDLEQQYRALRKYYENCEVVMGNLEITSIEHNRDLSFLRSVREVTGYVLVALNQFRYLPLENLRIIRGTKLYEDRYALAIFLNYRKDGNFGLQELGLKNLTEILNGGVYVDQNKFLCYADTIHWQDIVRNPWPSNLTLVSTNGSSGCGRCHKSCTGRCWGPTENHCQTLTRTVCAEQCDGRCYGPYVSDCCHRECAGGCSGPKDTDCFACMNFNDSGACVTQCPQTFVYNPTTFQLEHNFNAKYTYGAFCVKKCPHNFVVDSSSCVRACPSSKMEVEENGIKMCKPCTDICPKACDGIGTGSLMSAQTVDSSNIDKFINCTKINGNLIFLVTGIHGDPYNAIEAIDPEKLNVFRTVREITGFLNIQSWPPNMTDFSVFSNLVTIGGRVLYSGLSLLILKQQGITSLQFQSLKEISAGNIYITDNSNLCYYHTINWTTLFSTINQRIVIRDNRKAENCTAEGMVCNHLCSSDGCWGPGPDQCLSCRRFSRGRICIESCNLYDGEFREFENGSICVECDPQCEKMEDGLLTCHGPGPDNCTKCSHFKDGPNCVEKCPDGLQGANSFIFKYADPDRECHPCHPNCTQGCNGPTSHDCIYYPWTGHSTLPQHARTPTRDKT

B1: recombinantly produced HRG-β1 177-244 (soluble) (ligand)
chain: SHLVKCAEKEKTFCVNGGECFMVKDLSNPSRYLCKCPNEFTGDRCQNYVMASFYKHLGIEFMEAEELY
B2: HRG-β1 177-244 H178A on phage (ligand)
chain: SALVKCAEKEKTFCVNGGECFMVKDLSNPSRYLCKCPNEFTGDRCQNYVMASFYKHLGIEFMEAEELY
notes: not shown: M13 pIII C-terminal fragment (from pIII residue 247), the phage display partner
B3: HRG-β1 177-244 N192A on phage (ligand)
chain: SHLVKCAEKEKTFCVAGGECFMVKDLSNPSRYLCKCPNEFTGDRCQNYVMASFYKHLGIEFMEAEELY
notes: as for B2
B4: HRG-β1 177-244 G193A on phage (ligand)
chain: SHLVKCAEKEKTFCVNAGECFMVKDLSNPSRYLCKCPNEFTGDRCQNYVMASFYKHLGIEFMEAEELY
notes: as for B2
B5: HRG-β1 177-244 S177A on phage (ligand)
chain: AHLVKCAEKEKTFCVNGGECFMVKDLSNPSRYLCKCPNEFTGDRCQNYVMASFYKHLGIEFMEAEELY
notes: as for B2
B6: HRG-β1 177-244 V199A on phage (ligand)
chain: SHLVKCAEKEKTFCVNGGECFMAKDLSNPSRYLCKCPNEFTGDRCQNYVMASFYKHLGIEFMEAEELY
notes: not shown: M13 pIII fragment from residue 247 to the C-terminus (phage display carrier) and any cloning-site junction
B7: HRG-β1 177-244 G194A on phage (ligand)
chain: SHLVKCAEKEKTFCVNGAECFMVKDLSNPSRYLCKCPNEFTGDRCQNYVMASFYKHLGIEFMEAEELY
notes: as for B2
B8: HRG-β1 177-244 E215A on phage (ligand)
chain: SHLVKCAEKEKTFCVNGGECFMVKDLSNPSRYLCKCPNAFTGDRCQNYVMASFYKHLGIEFMEAEELY
notes: as for B6
B9: HRG-β1 177-244 Y224A on phage (ligand)
chain: SHLVKCAEKEKTFCVNGGECFMVKDLSNPSRYLCKCPNEFTGDRCQNAVMASFYKHLGIEFMEAEELY
notes: as for B2
B10: HRG-β1 177-244 F229A on phage (ligand)
chain: SHLVKCAEKEKTFCVNGGECFMVKDLSNPSRYLCKCPNEFTGDRCQNYVMASAYKHLGIEFMEAEELY
notes: as for B2
B11: HRG-β1 177-244 L179A on phage (ligand)
chain: SHAVKCAEKEKTFCVNGGECFMVKDLSNPSRYLCKCPNEFTGDRCQNYVMASFYKHLGIEFMEAEELY
notes: as for B2
B12: HRG-β1 177-244 E195A on phage (ligand)
chain: SHLVKCAEKEKTFCVNGGACFMVKDLSNPSRYLCKCPNEFTGDRCQNYVMASFYKHLGIEFMEAEELY
notes: as for B2
B13: HRG-β1 177-244 P205A on phage (ligand)
chain: SHLVKCAEKEKTFCVNGGECFMVKDLSNASRYLCKCPNEFTGDRCQNYVMASFYKHLGIEFMEAEELY
notes: as for B6
B14: HRG-β1 177-244 K211A on phage (ligand)
chain: SHLVKCAEKEKTFCVNGGECFMVKDLSNPSRYLCACPNEFTGDRCQNYVMASFYKHLGIEFMEAEELY
notes: as for B6
B15: HRG-β1 177-244 R207A on phage (ligand)
chain: SHLVKCAEKEKTFCVNGGECFMVKDLSNPSAYLCKCPNEFTGDRCQNYVMASFYKHLGIEFMEAEELY
notes: as for B6
B16: HRG-β1 177-244 T217A on phage (ligand)
chain: SHLVKCAEKEKTFCVNGGECFMVKDLSNPSRYLCKCPNEFAGDRCQNYVMASFYKHLGIEFMEAEELY
notes: as for B6
B17: HRG-β1 177-244 K200A on phage (ligand)
chain: SHLVKCAEKEKTFCVNGGECFMVADLSNPSRYLCKCPNEFTGDRCQNYVMASFYKHLGIEFMEAEELY
notes: also called K2OO; not shown: M13 pIII fragment from residue 247 to the C-terminus (phage display carrier) and any cloning-site junction
B18: TH-WT: thioredoxin fused at its C-terminus to wild-type HRG-β1 146-244 (ligand)
chain: DDDDKAYVSSESPIRISVSTEGANTSSSTSTSTTGTSHLVKCAEKEKTFCVNGGECFMVKDLSNPSRYLCKCPNEFTGDRCQNYVMASFYKHLGIEFMEAEELY
notes: also called Trx-wild-type HRG-β1; not shown: thioredoxin (Trx) from pTrxFus

How the values were obtained:
[1] = biological target: T2, ErbB-3 receptor-Ig fusion (human, UniProt P21860 20-643); assay: displacement of 125I-HRG-β1 177-244 from plate-bound ErbB-3-Ig
T2 construct: extracellular domain;range 224-C-terminus; also called ErbB-3-Ig; 3/3 homodimer; not shown: human IgG heavy chain constant region from His224 (hinge) on

[2] = biological target: T1, ErbB-4 receptor-Ig fusion; assay: displacement of 125I-HRG-β1 177-244 from plate-bound ErbB-4-Ig
[3] = biological target: T1, ErbB-4 receptor-Ig fusion; assay: phage ELISA; soluble ErbB-4-Ig as competitor
Method: (§1) Microtiter plates (Nunc Maxisorp™ 96-well plates, Inter Med, Denmark) for phage ELISA were prepared as follows. The wells were precoated overnight with 0.5 μg of rabbit anti-human IgG (Fc gamma fragment-specific) antibodies (Jackson Immunoresearch, West Grove, Pa.) in 100 μL 50 mM NaCO₃ (pH 9.6). The wells were blocked for 30 minutes (min) with 200 μL PBS containing 0.1% bovine serum albumin (BSA) and rinsed with wash buffer (PBS containing 0.05% Tween 20™). The wells were then coated with 0.1 μg ErbB-2/3-Ig in binding buffer (PBS, 0.1% BSA, 0.05% Tween 20™) for 1 h, and washed again.
(§2) Serial dilutions of soluble ErbB-2/3-Ig (competitor) and a concentration of phage predetermined to give 60% saturation (without competitor) were added to the wells in 100 μL binding buffer. Following incubation for 2 h at room temperature, plates were washed extensively and treated with a 1:900 dilution of anti-M13 horseradish peroxidase conjugate (Pharmacia, Piscataway, N.J.) for 20 min. The amount of phage binding was determined by assaying horseradish peroxidase activity using o-phenylenediamine dihydrochloride) substrate solution (Sigma Chemical Company, St. Louis, Mo.). EC₅₀ values were calculated as the concentration of soluble ErbB-2/3-Ig required to compete half of the phage off the plate.

[4] = biological target: T2, ErbB-3 receptor-Ig fusion; assay: phage ELISA; soluble ErbB-3-Ig as competitor
Method: as §1, §2

T2 sequence (P21860 other isoform, or with tags, fused parts or gaps): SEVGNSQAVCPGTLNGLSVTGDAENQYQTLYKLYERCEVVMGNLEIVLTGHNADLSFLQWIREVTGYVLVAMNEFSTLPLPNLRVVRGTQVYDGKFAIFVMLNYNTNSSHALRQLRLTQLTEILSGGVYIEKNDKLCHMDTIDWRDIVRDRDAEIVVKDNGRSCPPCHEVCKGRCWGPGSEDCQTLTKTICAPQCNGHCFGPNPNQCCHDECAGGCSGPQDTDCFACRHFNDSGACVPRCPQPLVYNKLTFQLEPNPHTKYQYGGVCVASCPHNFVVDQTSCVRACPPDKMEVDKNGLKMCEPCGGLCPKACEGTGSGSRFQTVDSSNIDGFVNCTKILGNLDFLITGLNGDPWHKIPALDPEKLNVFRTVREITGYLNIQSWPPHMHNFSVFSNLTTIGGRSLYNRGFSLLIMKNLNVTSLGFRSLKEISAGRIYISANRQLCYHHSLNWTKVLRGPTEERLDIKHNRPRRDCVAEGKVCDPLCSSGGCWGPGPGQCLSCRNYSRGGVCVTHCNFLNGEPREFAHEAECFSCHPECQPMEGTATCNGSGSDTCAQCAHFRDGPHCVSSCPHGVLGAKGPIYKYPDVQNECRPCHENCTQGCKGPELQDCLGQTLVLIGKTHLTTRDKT

Row | Molecule | EC50 [1] [nM] | EC50 [2] [nM] | EC50 [3] [nM] | EC50 [4] [nM]
1 | Trx-HRG-β1 146-244 K211A fusion (soluble) (from UniProt Q6DR98 147-244) (ligand) | 248 | 124 | – | –
2 | Trx-HRG-β1 146-244 E195A fusion (soluble) (from UniProt Q6DR98 147-244) (ligand) | 42 | 13.2 | – | –
3 | Trx-HRG-β1 146-244 R207A fusion (soluble) (from UniProt Q6DR98 147-244) (ligand) | 245 | 24.3 | – | –
4 | Trx-HRG-β1 146-244 F216A fusion (soluble) (from UniProt Q6DR98 147-244) (ligand) | 2550 | 173 | – | –
5 | Trx-HRG-β1 146-244 H178A fusion (soluble) (from UniProt Q6DR98 147-244) (ligand) | 476 | 138 | – | –
6 | Trx-HRG-β1 146-244 S177A fusion (soluble) (from UniProt Q6DR98 147-244) (ligand) | 129 | 54.6 | – | –
7 | Trx-HRG-β1 146-244 F189A fusion (soluble) (from UniProt Q6DR98 147-244) (ligand) | 975 | 565 | – | –
8 | Trx-HRG-β1 146-244 P205A fusion (soluble) (from UniProt Q6DR98 147-244) (ligand) | 39.5 | 34.2 | – | –
9 | Trx-HRG-β1 146-244 G218A fusion (soluble) (from UniProt Q6DR98 147-244) (ligand) | 668 | 608 | – | –
10 | Trx-HRG-β1 146-244 N192A fusion (soluble) (from UniProt Q6DR98 147-244) (ligand) | 1640 | 696 | – | –
11 | Trx-HRG-β1 146-244 F229A fusion (soluble) (from UniProt Q6DR98 147-244) (ligand) | 177 | 89.9 | – | –
12 | Trx-HRG-β1 146-244 T217A fusion (soluble) (from UniProt Q6DR98 147-244) (ligand) | 145 | 32.7 | – | –
13 | Trx-HRG-β1 146-244 K200A fusion (soluble) (from UniProt Q6DR98 147-244) (ligand) | 45.4 | 16.9 | – | –
14 | Trx-HRG-β1 146-244 Y224A fusion (soluble) (from UniProt Q6DR98 147-244) (ligand) | 339 | 24.5 | – | –
15 | Trx-HRG-β1 146-244 V199A fusion (soluble) (from UniProt Q6DR98 147-244) (ligand) | – | 246 | – | –
16 | Trx-HRG-β1 146-244 G194A fusion (soluble) (from UniProt Q6DR98 147-244) (ligand) | 1210 | 275 | – | –
17 | Trx-HRG-β1 146-244 L179A fusion (soluble) (from UniProt Q6DR98 147-244) (ligand) | 394 | 51.7 | – | –
18 | Trx-HRG-β1 146-244 G193A fusion (soluble) (from UniProt Q6DR98 147-244) (ligand) | 26.9 | 76.3 | – | –
19 | Trx-HRG-β1 146-244 E215A fusion (soluble) (from UniProt Q6DR98 147-244) (ligand) | 156 | 104 | – | –

Row | Molecule | EC50 [1] [nM] | EC50 [2] [nM] | EC50 [3] [nM] | EC50 [4] [nM]
20 | B1 | 9 | 14.8 | – | –
21 | B2 | – | – | 32 | –
22 | B3 | – | – | 188 | –
23 | B4 | – | – | 23 | –
24 | B5 | – | – | 83 | 67
25 | B6 | – | – | 47 | 27
26 | B7 | – | – | 65 | 500
27 | B8 | – | – | 32 | 51
28 | B9 | – | – | 51 | 865
29 | B10 | – | – | – | 6
30 | B11 | – | – | 56 | ~1000
31 | B12 | – | – | 24 | –
32 | B13 | – | – | 8 | 22
33 | B14 | – | – | 59 | –
34 | B15 | – | – | 30 | –
35 | B16 | – | – | 14.2 | –
36 | B17 | – | – | 25 | 20
37 | B18 | 47.6 | 15.4 | – | –
